Results as given in PMC4072508, “Genome-Wide Prediction and Validation of Peptides That Bind Human Prosurvival Bcl-2 Proteins” (PLoS Computational Biology, 2014).

T1: Mcl-1, Q07820
T1 chain: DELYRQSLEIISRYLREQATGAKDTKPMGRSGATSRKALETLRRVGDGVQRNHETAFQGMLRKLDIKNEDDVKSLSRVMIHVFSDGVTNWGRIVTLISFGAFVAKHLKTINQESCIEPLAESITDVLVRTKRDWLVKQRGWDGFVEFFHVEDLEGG

T2: Bfl-1, Q16548
T2 chain: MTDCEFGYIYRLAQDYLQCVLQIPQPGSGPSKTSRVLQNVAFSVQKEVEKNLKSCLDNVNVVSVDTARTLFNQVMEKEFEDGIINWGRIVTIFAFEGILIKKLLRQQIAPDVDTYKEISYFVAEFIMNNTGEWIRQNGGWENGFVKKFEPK


Key:
Test in all cases: peptide SPOT array, c-Myc-tagged receptor at 1 uM or 100 nM, anti-c-Myc-Cy3
[1] = target: T1, Mcl-1, Q07820
[2] = target: Bcl-xL, Q07817
[3] = target: T2, Bfl-1, Q16548

Sequence of Bcl-xL, Q07817 (Q07817 1-209): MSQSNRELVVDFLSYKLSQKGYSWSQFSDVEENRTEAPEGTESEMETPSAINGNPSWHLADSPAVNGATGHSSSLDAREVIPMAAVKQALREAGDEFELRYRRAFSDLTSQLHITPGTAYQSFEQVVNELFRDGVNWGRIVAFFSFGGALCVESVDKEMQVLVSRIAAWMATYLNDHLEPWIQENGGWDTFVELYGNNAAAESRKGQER

| Binder | SPOT signal as a fraction of Bim BH3's signal on the same receptor and array [1] | SPOT signal as a fraction of Bim BH3's signal on the same receptor and array [2] | SPOT signal as a fraction of Bim BH3's signal on the same receptor and array [3] |
| --- | --- | --- | --- |
| ELLYGIWSNCDGLISDSFHMFFDSTA | 0.05 | 0.06 | 0.05 |
| SGLPGLSSVDDNNFGDSINESEGIPL | 0.03 | 0.08 | 0.04 |
| RMIVDCVSSHDKKTGDGAKTFIIFLC [BBS10] | 0.08 | 0.17 | 0.09 |
| THFLDEEVKLDKKMGDHLTNLHRLGG [FTL] | 0.05 | 0.07 | 0.03 |
| LLDFFMVSILDSKLGDLLHKLQFVLT [PCNXL2] | 0.06 | 0.09 | 0.04 |
| VLAPVQLGKWLVLFLDEINLPDMDKY [DYNC1H1] | 0.08 | 0.08 | 0.07 |
| SQGKHGFTMAMNAFLDMTNEEFRQMM [CTSL2] | 0.11 | 0.07 | 0.06 |
| KKLKNLEGNEDQRHADEFLLDLGHHE | 0.04 | 0.07 | 0.04 |
| KKLKNLEGNELQRHLDEFLLDLGHHE | 0.05 | 0.08 | 0.04 |
| EAVTDGLKRALRSFLNALGNCILDKD [RAD52] | 0.08 | 0.08 | 0.04 |
| MPYMEAVIHEDQRFGDVIPMSLARRV [CYP2A6] | 0.07 | 0.07 | 0.04 |
| ISSLDLLPYGLRYILKVLKNSIHEKF [IQGAP2] | 0.66 | 0.86 | 0.6 |
| SGLPGLSSVDINNFLDSINESEGIPL | 0.04 | 0.11 | 0.04 |
| RAKASSLSEELKHFLDGLETDGTLQK [DSN1] | 0.18 | 0.26 | 0.17 |
| ELDEDDLEAEDDALGDELLADEDSSY [CHMP5] | 0.03 | 0.06 | 0.03 |
| MRSQLGKATADAIMGDKLWWADQVSE [LRP1] | 0.16 | 0.17 | 0.12 |
| SSTMGQVGRQDAIIGDDINRRYDSEF [BAK1] | 0.01 | 0.02 | 0.01 |
| GSPDSMFGISDAVLGDLNQDGFPDIA [ITGA7] | 0.03 | 0.07 | 0.08 |
| LDFTFVCPTEIIAFLDRLEEFRSINT [PRDX4] | 0.05 | 0.05 | 0.04 |
| LWAAQRYGREDRRMSDEFVDSFKKGL [BAD] | 0.51 | 0.53 | 0.3 |

Second part, the binder after the results:

| SPOT signal as a fraction of Bim BH3's signal on the same receptor and array [1] | SPOT signal as a fraction of Bim BH3's signal on the same receptor and array [2] | SPOT signal as a fraction of Bim BH3's signal on the same receptor and array [3] | Binder |
| --- | --- | --- | --- |
| 0.06 | 0.06 | 0.04 | MSLFLRVVFSFTMFLDLFEEEYSTVS [USP40] |
| 0.04 | 0.1 | 0.04 | PSECETLGSNLGHNLDLLNENNILAK [ZFP90] |
| 0.31 | 0.88 | 0.34 | SDIRDDISEQVRHVLRTVRGHPRKKL [TMEM184C] |
| 0.06 | 0.07 | 0.06 | ELLYGIWSNCLGLISDSFHMFFDSTA |
| 1.43 | 2.54 | 1.4 | TAAAAYRGAHDRGRGRTVYNTFRAAA |
| 0.04 | 0.07 | 0.05 | LNLLMISVAFLRVILDQLEKLCDSLL [SLC38A8] |
| 0.23 | 0.2 | 0.24 | GGRVKLVHSADIQLGDSLSHKGNEFW |
| 0.04 | 0.06 | 0.03 | MSILTIASAVDEFVGDGIYNNTMGHV [TAP1] |
| 0.27 | 0.23 | 0.12 | FTCKNKFCKPLFWVLDSVNDCGDNSD [ST14] |
| 0.23 | 0.28 | 0.23 | GGRVKLVHSALIQLLDSLSHKGNEFW |
| 1.44 | 2.49 | 1.48 | GTAVAYRGAHLRGRLRAVYNTFRAAP |
| 0.05 | 0.09 | 0.05 | VTLLSEVEKMDSNFGDCVQYKEIVKN [SYNE1] |
